# Measurements as given in IntAct's records for PubMed 23236153.
# B1: Pre-mRNA-splicing factor CWC22 homolog (Homo sapiens), Q9HCG8 (parent)
# chain: MKSSVAQIKPSSGHDRRENLNSYQRNSSPEDRYEEQERSPRDRDYFDYSRSDYEHSRRGRSYDSSMESRNRDREKRRERERDTDRKRSRKSPSPGRRNPETSVTQSSSAQDEPATKKKKDELDPLLTRTGGAYIPPAKLRMMQEQITDKNSLAYQRMSWEALKKSINGLINKVNISNISIIIQELLQENIVRGRGLLSRSVLQAQSASPIFTHVYAALVAIINSKFPQIGELILKRLILNFRKGYRRNDKQLCLTASKFVAHLINQNVAHEVLCLEMLTLLLERPTDDSVEVAIGFLKECGLKLTQVSPRGINAIFERLRNILHESEIDKRVQYMIEVMFAVRKDGFKDHPIILEGLDLVEEDDQFTHMLPLEDDYNPEDVLNVFKMDPNFMENEEKYKAIKKEILDEGDTDSNTDQDAGSSEEDEEEEEEEGEEDEEGQKVTIHDKTEINLVSFRRTIYLAIQSSLDFEECAHKLLKMEFPESQTKELCNMILDCCAQQRTYEKFFGLLAGRFCMLKKEYMESFEGIFKEQYDTIHRLETNKLRNVAKMFAHLLYTDSLPWSVLECIKLSEETTTSSSRIFVKIFFQELCEYMGLPKLNARLKDETLQPFFEGLLPRDNPRNTRFAINFFTSIGLGGLTDELREHLKNTPKVIVAQKPDVEQNKSSPSSSSSASSSSESDSSDSDSDSSDSSSESSSEESDSSSISSHSSASANDVRKKGHGKTRSKEVDKLIRNQQTNDRKQKERRQEHGHQETRTERERRSEKHRDQNSSGSNWRDPITKYTSDKDVPSERNNYSRVANDRDQEMHIDLENKHGDPKKKRGERRNSFSENEKHTHRIKDSENFRRKDRSKSKEMNRKHSGSRSDEDRYQNGAERRWEKSSRYSEQSRESKKNQDRRREKSPAKQK
# Variants of: B1
# Settings: with if4a3_human EIF4A3, P38919
# Chain of if4a3_human EIF4A3, P38919 (P38919 whole entry): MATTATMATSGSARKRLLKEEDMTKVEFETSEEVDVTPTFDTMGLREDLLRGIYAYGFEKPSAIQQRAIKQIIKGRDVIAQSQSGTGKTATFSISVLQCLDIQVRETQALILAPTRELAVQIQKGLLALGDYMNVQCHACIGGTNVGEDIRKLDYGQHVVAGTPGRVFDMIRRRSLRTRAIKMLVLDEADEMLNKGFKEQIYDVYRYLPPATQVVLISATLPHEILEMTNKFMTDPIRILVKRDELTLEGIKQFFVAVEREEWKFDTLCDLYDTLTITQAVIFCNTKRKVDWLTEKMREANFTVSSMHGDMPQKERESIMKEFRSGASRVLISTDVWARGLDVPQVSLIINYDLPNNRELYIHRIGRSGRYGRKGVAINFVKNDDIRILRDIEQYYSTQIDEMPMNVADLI
row,effect of a mutation on the interaction,Variant
1,disrupting interaction strength,N171A;K172A;N174A
2,decreasing interaction strength,R331A;Y334A
